# Target: TNF-alpha (UniProt P01375 77-233)
# Experiment: FRET quenching (QD photoluminescence decreases with TNF-alpha); DSS peptide-conjugated QD/Au molecular beacon, TNF-alpha in PBS; TNF-alpha samples in PBS; other assay conditions (temperature, concentrations) not in the material; beacon washed in 50 mM borate pH 8.3
# Conditions: chain copies: 3
# TNF-alpha, sequence (P01375 77-233): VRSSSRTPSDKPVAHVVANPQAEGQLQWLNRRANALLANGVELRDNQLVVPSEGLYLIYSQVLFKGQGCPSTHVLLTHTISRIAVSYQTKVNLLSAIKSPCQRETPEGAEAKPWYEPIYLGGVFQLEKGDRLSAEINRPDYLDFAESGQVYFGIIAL
binder,measurement,value
"TGGTGGATGGCGCAGTCGGCGACAA (ssDNA, 5' Amino C6; 3' Thiol C6 SS) [TNF-alpha binding DNA aptamer (25 nt) in DSS-molecular beacon]",binding result,binds

# — article PMC7413375, “A study on the response of FRET based DNA aptasensors in intracellular environment”
